Experimental findings from PMC5492076, “β-Cyanoalanine Synthases and Their Possible Role in Pierid Host Plant Adaptation” (Insects, 2017) are described below.

Substrate in the data set: N[C@@H](CS)C(=O)O
In words: colorimetric sulfide formation, Michaelis-Menten fit. The data set is classed as biochemical, Aporia crataegi. The following applies: 6 mM KCN, 20 µM pyridoxal-5'-phosphate, Tris-HCl pH 8.5, 31 °C, 10 min. The source says: colorimetric sulfide formation, Michaelis-Menten fit on AcrBSAS3

By Vmax is commonly meant the top rate of the reaction or transport when substrate is in excess.

B1: AcrBSAS3 (Aporia crataegi) (protein)
chain: MTNAISVSNEIKASALELIGNTPLLALDRLHPGPGRILVKCEFMNPGGSLKCRSSLHMIQKARERGELKPGGDVVEVTSGNQGCGLGVVCSVLGHPLTVTMSKGNSIQRALHMEALGAKCIRYPLVKGTYGNVTFADVEPALEGAMKMSEETGAFFVKQMANPDNIEAHYETTGPEIWRQSGHRVDAFVTAVGTSGTFTGVSKYLKEQNPEIQCFVVEPEGSQPLKGCPITKPLHMLQGASYGVVPDLFNPDLMEDSISVTDEESVHYKDLLGTKEGLFVGYTSGANVAAAVKLLNSGKLPKDAWVVTILSDTGLKYTPVPDNLIE
notes: N-terminal Strep-tag, E. coli BL21(DE3) pLysS; Strep-Tactin purified
As to B1, the Km is given as 1.31 (±0.08) mM and the maximal velocity (Vmax) amounted to 1.12 µmol/min/mg.
